For orientation: Kd means the equilibrium constant for the complex coming apart.

Assay [1] concerns the target recombinant full-length VAR2CSA (3D7-DBL1X-6ε) (Plasmodium falciparum (3D7)). Nature of the assay: SPR. On the technique in general: Surface plasmon resonance follows binding to a sensor surface in real time, without labels.
For assay [2], the target named is T1, recombinant full-length DARC325 protein (UniProt Q16570 1-325).
T1 chain: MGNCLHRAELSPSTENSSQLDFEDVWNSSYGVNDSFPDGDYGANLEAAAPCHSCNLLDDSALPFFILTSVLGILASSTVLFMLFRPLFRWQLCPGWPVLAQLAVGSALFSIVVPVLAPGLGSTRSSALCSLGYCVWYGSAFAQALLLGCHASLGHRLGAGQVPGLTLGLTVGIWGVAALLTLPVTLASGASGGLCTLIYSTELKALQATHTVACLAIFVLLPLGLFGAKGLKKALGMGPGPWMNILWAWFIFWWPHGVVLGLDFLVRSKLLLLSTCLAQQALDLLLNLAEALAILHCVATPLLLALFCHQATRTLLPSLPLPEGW
Nature of the assay: SPR.

B1: VAR2CSAVHH (VHH)
VHH: QVQLQESGGGLVQAGGSLRLSCAFSGSIFKMGWFRQAPGKEREFVAAIRWSGGSTYYADSVKGRFTISRDNAKNTVYLQMDSLKPEDTAVYYCAATWDLAGWNTVDEYDYWGQGTQVTVSS
For B1, the Kd in assay [1] was 0.486 nM.

B2: DARCVHH (VHH)
VHH: QVQLQESGGGSVQAGGSLRLSCAASGYAFSSYCMAWFRQVPGKEREGVASINSDGERRGYADSVKGRFTVSRDNAKNTVYLQMNSLKPEDTAIYYCAAKRVVGGRYCGGGVSSWGQGTQVTVSS
With B2, in assay [2], the Kd was 0.09 nM.

B3: DARCVHH-EBV P18F4 (VHH)
VHH: QVQLQESGGGSVQAGGSLRLSCAASGYAFSSYCMAWFRQVPGKEREGVASINSDGERRGYADSVKGRFTVSRDNAKNTVYLQMNSLKPEDTAIYYCAAKRVVGGRYCGGGVSSWGQGTQVTVSS
On to B3, for which, in assay [2], the Kd amounted to 0.0565 nM.

For the origin of these results see US20180360950A1 (published 2018).
